Columns and labels:
Experiment in all cases: FACS, mAb 5 µg/ml, CD20 variant on transfected HEK293 cells
[1] = target: S173A
[2] = target: WT
[3] = target: E168A
[4] = target: K175R
[5] = target: K175F
[6] = target: N176A
[7] = target: E174Y
[8] = target: N171A
[9] = target: A170S
[10] = target: S177A
[11] = target: A170P
[12] = target: E174D
[13] = target: P172A
[14] = target: N171H
Sequence of N171H (CD20, as listed by the source N171H N171H limits assumed): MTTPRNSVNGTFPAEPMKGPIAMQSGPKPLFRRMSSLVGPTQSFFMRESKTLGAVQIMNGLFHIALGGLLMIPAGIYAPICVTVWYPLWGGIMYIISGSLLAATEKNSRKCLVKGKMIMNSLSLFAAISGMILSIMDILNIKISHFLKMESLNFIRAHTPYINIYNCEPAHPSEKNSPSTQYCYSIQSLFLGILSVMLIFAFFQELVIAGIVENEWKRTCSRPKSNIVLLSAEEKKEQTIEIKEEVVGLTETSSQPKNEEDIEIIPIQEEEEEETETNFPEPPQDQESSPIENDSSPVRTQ

Sequence of E174D (CD20, as listed by the source E174D E174D limits assumed): as the sequence (CD20, as listed by the source N171H N171H limits assumed) above, with H171N, E174D counted along it
Sequence of N176A (CD20, as listed by the source N176A N176A limits assumed): as the sequence (CD20, as listed by the source N171H N171H limits assumed) above, with H171N, N176A counted along it
Sequence of WT (CD20, as listed by the source limits assumed): as the sequence (CD20, as listed by the source N171H N171H limits assumed) above, with H171N counted along it
Sequence of S177A (CD20, as listed by the source S177A S177A limits assumed): as the sequence (CD20, as listed by the source N171H N171H limits assumed) above, with H171N, S177A counted along it
Sequence of N171A (CD20, as listed by the source N171A N171A limits assumed): as the sequence (CD20, as listed by the source N171H N171H limits assumed) above, with H171A counted along it
Sequence of S173A (CD20, as listed by the source S173A S173A limits assumed): as the sequence (CD20, as listed by the source N171H N171H limits assumed) above, with H171N, S173A counted along it
Sequence of A170S (CD20, as listed by the source A170S A170S limits assumed): as the sequence (CD20, as listed by the source N171H N171H limits assumed) above, with A170S, H171N counted along it
Sequence of E168A (CD20, as listed by the source E168A E168A limits assumed): as the sequence (CD20, as listed by the source N171H N171H limits assumed) above, with E168A, H171N counted along it
Sequence of K175R (CD20, as listed by the source K175R K175R limits assumed): as the sequence (CD20, as listed by the source N171H N171H limits assumed) above, with H171N, K175R counted along it
Sequence of P172A (CD20, as listed by the source P172A P172A limits assumed): as the sequence (CD20, as listed by the source N171H N171H limits assumed) above, with H171N, P172A counted along it
Sequence of K175F (CD20, as listed by the source K175F K175F limits assumed): as the sequence (CD20, as listed by the source N171H N171H limits assumed) above, with H171N, K175F counted along it
Sequence of E174Y (CD20, as listed by the source E174Y E174Y limits assumed): as the sequence (CD20, as listed by the source N171H N171H limits assumed) above, with H171N, E174Y counted along it
Sequence of A170P (CD20, as listed by the source A170P A170P limits assumed): as the sequence (CD20, as listed by the source N171H N171H limits assumed) above, with A170P, H171N counted along it

Substance | % of best binder [1] [%] | % of best binder [2] [%] | % of best binder [3] [%] | % of best binder [4] [%] | % of best binder [5] [%] | % of best binder [6] [%] | % of best binder [7] [%] | % of best binder [8] [%] | % of best binder [9] [%] | % of best binder [10] [%] | % of best binder [11] [%] | % of best binder [12] [%] | % of best binder [13] [%] | % of best binder [14] [%]
m7D8 (antibody) | 73 | 77 | 66 | 71 | 71 | 67 | 80 | 82 | 60 | 68 | 62 | 67 | 69 | 86
mRTX (antibody) | 2 | 77 | 52 | 65 | 67 | 65 | 29 | 3 | 60 | 63 | 42 | 52 | 25 | 5
B1 (antibody) | 55 | 59 | 48 | 53 | 46 | 2 | 51 | 46 | 55 | 40 | 38 | 57 | 31 | 58
m11B8 (antibody) | 98 | 82 | 83 | 89 | 94 | 88 | 13 | 100 | 84 | 79 | 41 | 9 | 96 | 100
